Here are results for two proteins from article PMC3070753, “Biochemical and Structural Properties of Cyanases from Arabidopsis thaliana and Oryza sativa” (PLoS ONE, 2011).

Substrate in series [1]: N#CO
Put plainly: purified protein. The following applies: 5 mM NaHCO3, pH 7.7, 27°C. The series is classed as biochemical, Oryza sativa.

Substrate in series [2]: O=C(O)O
Put plainly: purified protein. The following applies: 5 mM KCNO, pH 7.7, 27°C.

Series [3] concerns the molecule itself. Put plainly: SEC; His-tagged proteins after Ni2+ affinity chromatography on a Superdex 200 10/300 GL column; molecular weight calculated against high molecular weight standards.
Substrate in series [4]: N#CO
Put plainly: purified protein. It counts as biochemical, Arabidopsis thaliana. Conditions: 5 mM NaHCO3, pH 7.7, 27°C.

B1: His-tagged recombinant OsCYN (enzyme, Oryza sativa, UniProt Q9FWK4 1-168, looked up)
chain: MEGGGGERAAGVVRRLMAAKAESRKSFSEIGEEAGLTNVYVAQLLRRQAQLKPETAPALRAAVPGLTDDLVALMMEPPFRSYHPDIVHEPAIYRLNEAVMHFGESIKEIINEEFGDGIMSAIDFYCSVDKVQGADGKDRVVVTFDGKYLPYSEQRSDHMMSRLTRKTS
notes: cyanase (OsCYN) of Oryza sativa (cv. Zhonghua 11), 168 aa, NP_001064827; cDNA amplified with primers from the start codon to the stop codon, cloned into pET15b; pET15b construct (BamH I and Xho I sites); calculated monomer with tag 22.0 kDa; also called His:OsCYN; source: E. coli BL21 (DE3), purified (Ni2+ chelating column, Superdex 200); copies: 10
Take B1: the results for the Km in the series “purified protein [1]” and in “purified protein [2]” were 7380 µM and 630 µM, respectively. Also, the stoichiometry N – broadly, the number of molecules, sites or subunits per partner or assembly – in series [3] is 10.

B2: His-tagged recombinant AtCYN (enzyme, Arabidopsis thaliana, UniProt O22683 1-168, looked up)
chain: MEAAKKQSVTNQLLAVKSASGKTFSQLAAETGLTNVYVAQLLRRQAQLKPDTVPKLKEALPALTDELIGDMMSPPWRSYDPNLIQEPTIYRLNEAVMHFGESIKEIINEDFGDGIMSAIDFYCSVDKIKGVDGNNRVVVTLDGKYLSHSEQRTENMVSRLNLKGGTSE
notes: cyanase (AtCYN) of Arabidopsis thaliana, 168 aa, NP_188991; cDNA amplified with primers from the start codon to the stop codon, cloned into pET15b; pET15b construct (BamH I and Xho I sites); calculated monomer with tag 21.9 kDa; also called His:AtCYN; source: E. coli BL21 (DE3), purified (Ni2+ chelating column, Superdex 200); copies: 10
Turning to B2, the results for the Michaelis constant (Km) in the series “purified protein [4]” and in the series “purified protein [2]” were 940 µM and 790 µM, respectively. For the same protein, the “stoichiometry N” value in series [3] was 10.
